Measurements: article PMC4601027 (2015)
Non-standard residues stand in square brackets, D forms with d. No end group written: not given here. pS = N[C@@H](COP(=O)(O)O)C(=O)O

B1: Pin1 WW domain (domain or fragment)
chain: MADEEKLPPGWEKRMSRSSGRVYYFNHITNASQWERPSGNS

Legend:
Test in all cases: ITC
CPEB1 pS184 peptide = CPEB1 pS184 peptide (UniProt Q9BZB8, phosphoserine at 184)
CPEB1 pS248 peptide = CPEB1 pS248 peptide (UniProt Q9BZB8, phosphoserine at 248)
CPEB1 pS138 peptide = CPEB1 pS138 peptide (UniProt Q9BZB8, phosphoserine at 138)
CPEB1 pS144 peptide = CPEB1 pS144 peptide (UniProt Q9BZB8, phosphoserine at 144)
CPEB1 pS423 peptide = CPEB1 pS423 peptide (UniProt Q9BZB8, phosphoserine at 423)
full-length Pin1 = full-length Pin1 (UniProt Q13526 1-163)
Pin1 WW domain = target: B1

Chain of full-length Pin1 (Q13526 whole entry, the tested form may be a part): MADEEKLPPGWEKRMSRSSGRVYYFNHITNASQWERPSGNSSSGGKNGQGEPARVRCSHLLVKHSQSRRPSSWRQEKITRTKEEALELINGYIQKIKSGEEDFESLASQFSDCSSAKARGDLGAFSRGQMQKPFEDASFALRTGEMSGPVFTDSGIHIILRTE

Kd (CPEB1 pS184 peptide)	Kd (CPEB1 pS248 peptide)	Kd (CPEB1 pS138 peptide)	Kd (CPEB1 pS144 peptide)	Kd (CPEB1 pS423 peptide)	Kd (full-length Pin1)	Kd (Pin1 WW domain)	Binder
28.6 µM	47.6 µM	71.3 µM	75.4 µM	158 µM	–	–	B1
–	–	–	–	–	32.3 µM	30.3 µM	RI[pS]PPLPF-NH2 [CPEB1 pS210 peptide]
